The values that follow come from the RNAGym collection of RNA variant scans (doi:10.7554/elife.80360).

The labels stand for the following.
B1: CPEB3 Ribozyme (parent)
chain: GGGGGCCACAGCAGAAGCGUUCACGUCGCGGCCCCUGUCAGAUUCUGGUGAAUCUGCGAAUUCUGCUGU

The data set covers variants of B1. Description: self-cleavage, relative activity (ratio to wild type); higher = more cleavage; co-transcriptional.
For the variant GGGGGCCACAGCAGAAGCGUUCACGUCGCGGCCCCUGUCAGAUUCUGGUUAAUCUGCGAAUUCUGCUUU [G50U G68U], the self-cleavage turned out to be 1.02. Regarding GGGGGCCACAGCAGAAGCGUUCACGUCGCGGCCCCUGUCAGAUUCUGGUCAAUCUCCGAAUUCUGCUGU [G50C G56C], the self-cleavage was 0.456.

As to GGGGGCCACAGCAGAAGCGUUCACGUCGCGGCCCCUGUCAGAUUCUGGUUAAUCUGCGAAUUGUGCUGU [G50U C63G], the self-cleavage worked out at 0.844.

With GGGGGCCACAGCAGAAGCGUUCACGUCGCGGCCCCUGUCAGAUUCUGGUUAAUCUGCGAAUCCUGCUGU [G50U U62C], the self-cleavage worked out at 0.866. Turning to GGGGGCCACAGCAGAAGCGUUCACGUCGCGGCCCCUGUCAGAUUCUGGUCAAUCUGCGAAUUCUGCUGC [G50C U69C], the self-cleavage is 1.07. As for GGGGGCCACAGCAGAAGCGUUCACGUCGCGGCCCCUGUCAGAUUCUGGUCAAACUGCGAAUUCUGCUGU [G50C U53A], the self-cleavage was found to be 0.899. To GGGGGCCACAGCAGAAGCGUUCACGUCGCGGCCCCUGUCAGAUUCUGGUCAAUCUGCGAAUUCAGCUGU [G50C U64A] belongs 0.792; to GGGGGCCACAGCAGAAGCGUUCACGUCGCGGCCCCUGUCAGAUUCUGGUUCAUCUGCGAAUUCUGCUGU [G50U A51C], 0.938. Consider GGGGGCCACAGCAGAAGCGUUCACGUCGCGGCCCCUGUCAGAUUCUGGUGCUUCUGCGAAUUCUGCUGU [A51C A52U], for which the self-cleavage was determined as 0.864. Consider GGGGGCCACAGCAGAAGCGUUCACGUCGCGGCCCCUGUCAGAUUCUGGUCAAUCUGGGAAUUCUGCUGU [G50C C57G], for which the self-cleavage is 0.314. For GGGGGCCACAGCAGAAGCGUUCACGUCGCGGCCCCUGUCAGAUUCUGGUCAAUCUGCGAAUUCUUCUGU [G50C G65U], the self-cleavage was 0.774.

With GGGGGCCACAGCAGAAGCGUUCACGUCGCGGCCCCUGUCAGAUUCUGGUUAGUCUGCGAAUUCUGCUGU [G50U A52G], the self-cleavage is 0.976.

Take GGGGGCCACAGCAGAAGCGUUCACGUCGCGGCCCCUGUCAGAUUCUGGUUAAUCUGCGACUUCUGCUGU [G50U A60C]: the self-cleavage turned out to be 0.382. As to GGGGGCCACAGCAGAAGCGUUCACGUCGCGGCCCCUGUCAGAUUCUGGUUAAUCUGCGAGUUCUGCUGU [G50U A60G], the self-cleavage was determined as 0.973. To GGGGGCCACAGCAGAAGCGUUCACGUCGCGGCCCCUGUCAGAUUCUGGUCAAUCUGCAAAUUCUGCUGU [G50C G58A] belongs 0.935; to GGGGGCCACAGCAGAAGCGUUCACGUCGCGGCCCCUGUCAGAUUCUGGUUAAUCUGCCAAUUCUGCUGU [G50U G58C], 0.942. With GGGGGCCACAGCAGAAGCGUUCACGUCGCGGCCCCUGUCAGAUUCUGGUUAAUCUGCGAAUUCCGCUGU [G50U U64C], the self-cleavage is 0.947. Take GGGGGCCACAGCAGAAGCGUUCACGUCGCGGCCCCUGUCAGAUUCUGGUUAAUCUGCGAAUUCGGCUGU [G50U U64G]: the self-cleavage came to 0.864. Consider GGGGGCCACAGCAGAAGCGUUCACGUCGCGGCCCCUGUCAGAUUCUGGUUAAUGUGCGAAUUCUGCUGU [G50U C54G], for which the self-cleavage stood at 0.781. As for GGGGGCCACAGCAGAAGCGUUCACGUCGCGGCCCCUGUCAGAUUCUGGUUAACCUGCGAAUUCUGCUGU [G50U U53C], the self-cleavage came out at 0.909. To GGGGGCCACAGCAGAAGCGUUCACGUCGCGGCCCCUGUCAGAUUCUGGUUAAGCUGCGAAUUCUGCUGU [G50U U53G] belongs 0.871. For the variant GGGGGCCACAGCAGAAGCGUUCACGUCGCGGCCCCUGUCAGAUUCUGGUUAAUCUGCGAAUUCUCCUGU [G50U G65C], the self-cleavage was 0.73. For the variant GGGGGCCACAGCAGAAGCGUUCACGUCGCGGCCCCUGUCAGAUUCUGGUUAAUCUGCGAAUUCUUCUGU [G50U G65U], the self-cleavage came to 0.809. As for GGGGGCCACAGCAGAAGCGUUCACGUCGCGGCCCCUGUCAGAUUCUGGUUAAUCUCCGAAUUCUGCUGU [G50U G56C], the self-cleavage was 0.649.

For the variant GGGGGCCACAGCAGAAGCGUUCACGUCGCGGCCCCUGUCAGAUUCUGGUCAAUCUGCGAGUUCUGCUGU [G50C A60G], the self-cleavage was determined as 0.959. For GGGGGCCACAGCAGAAGCGUUCACGUCGCGGCCCCUGUCAGAUUCUGGUUAAUCGGCGAAUUCUGCUGU [G50U U55G] the value was 0.8; for GGGGGCCACAGCAGAAGCGUUCACGUCGCGGCCCCUGUCAGAUUCUGGUUAAUCAGCGAAUUCUGCUGU [G50U U55A], 0.882. GGGGGCCACAGCAGAAGCGUUCACGUCGCGGCCCCUGUCAGAUUCUGGUUAAUCUGCGAAUUCUGCGGU [G50U U67G]: the self-cleavage was found to be 1.05. Consider GGGGGCCACAGCAGAAGCGUUCACGUCGCGGCCCCUGUCAGAUUCUGGUUAAUCUGCGAAUUCUGCAGU [G50U U67A], for which the self-cleavage came to 1.04. With GGGGGCCACAGCAGAAGCGUUCACGUCGCGGCCCCUGUCAGAUUCUGGUCAUUCUGCGAAUUCUGCUGU [G50C A52U], the self-cleavage came out at 0.884. To GGGGGCCACAGCAGAAGCGUUCACGUCGCGGCCCCUGUCAGAUUCUGGUCAAUCUGCGAAUUCUGCUAU [G50C G68A] belongs 0.992. To GGGGGCCACAGCAGAAGCGUUCACGUCGCGGCCCCUGUCAGAUUCUGGUCAAUCUGCGAAUUCUGCAGU [G50C U67A] belongs 0.955; to GGGGGCCACAGCAGAAGCGUUCACGUCGCGGCCCCUGUCAGAUUCUGGUCGAUCUGCGAAUUCUGCUGU [G50C A51G], 0.982; to GGGGGCCACAGCAGAAGCGUUCACGUCGCGGCCCCUGUCAGAUUCUGGUUAAUCUGCGAAUUCUGCUGU [G50U], 0.997.

GGGGGCCACAGCAGAAGCGUUCACGUCGCGGCCCCUGUCAGAUUCUGGUUAAUCUGCGAAUUCUGGUGU [G50U C66G]: the self-cleavage turned out to be 0.923. Turning to GGGGGCCACAGCAGAAGCGUUCACGUCGCGGCCCCUGUCAGAUUCUGGUUAAUCUGCGAAUUCUGAUGU [G50U C66A], the self-cleavage was 0.824. In the case of GGGGGCCACAGCAGAAGCGUUCACGUCGCGGCCCCUGUCAGAUUCUGGUUAAUCUGCGAAUUCUGUUGU [G50U C66U], the self-cleavage was found to be 1.01. Turning to GGGGGCCACAGCAGAAGCGUUCACGUCGCGGCCCCUGUCAGAUUCUGGUCAAUAUGCGAAUUCUGCUGU [G50C C54A], the self-cleavage was found to be 0.53. Take GGGGGCCACAGCAGAAGCGUUCACGUCGCGGCCCCUGUCAGAUUCUGGUUAAUCUGCGCAUUCUGCUGU [G50U A59C]: the self-cleavage stood at 0.682.
